Values of other authors in publication PMC5828769.

How the values were obtained:
[1] = biological target: actin (AngBP) (Bos taurus) (UniProt P60712)
[2] = biological target: angiogenin (Homo sapiens) (UniProt P03950)
Sequence of UniProt P03950 (P03950 25-147): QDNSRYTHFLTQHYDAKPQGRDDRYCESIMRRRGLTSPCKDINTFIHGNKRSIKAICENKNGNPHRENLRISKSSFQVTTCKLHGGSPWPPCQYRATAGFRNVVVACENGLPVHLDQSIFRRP

Row | Substance | Kd [1] [pM] | Ki [2] [pM]
1 | angiogenin (from UniProt P10152) | 500 | –
2 | PRI (ribonuclease inhibitor) (from UniProt P13489) | – | < 0.001
